Measurements taken from patent US20220177594A1 (ZOETIS SERVICES, published 2022).
Where two headings read alike, the source gives them in different places.

T1: feline OSMR on feline Fcwf-4 cells (feline, UniProt A0ABI8A843 28-960)
T1 sequence: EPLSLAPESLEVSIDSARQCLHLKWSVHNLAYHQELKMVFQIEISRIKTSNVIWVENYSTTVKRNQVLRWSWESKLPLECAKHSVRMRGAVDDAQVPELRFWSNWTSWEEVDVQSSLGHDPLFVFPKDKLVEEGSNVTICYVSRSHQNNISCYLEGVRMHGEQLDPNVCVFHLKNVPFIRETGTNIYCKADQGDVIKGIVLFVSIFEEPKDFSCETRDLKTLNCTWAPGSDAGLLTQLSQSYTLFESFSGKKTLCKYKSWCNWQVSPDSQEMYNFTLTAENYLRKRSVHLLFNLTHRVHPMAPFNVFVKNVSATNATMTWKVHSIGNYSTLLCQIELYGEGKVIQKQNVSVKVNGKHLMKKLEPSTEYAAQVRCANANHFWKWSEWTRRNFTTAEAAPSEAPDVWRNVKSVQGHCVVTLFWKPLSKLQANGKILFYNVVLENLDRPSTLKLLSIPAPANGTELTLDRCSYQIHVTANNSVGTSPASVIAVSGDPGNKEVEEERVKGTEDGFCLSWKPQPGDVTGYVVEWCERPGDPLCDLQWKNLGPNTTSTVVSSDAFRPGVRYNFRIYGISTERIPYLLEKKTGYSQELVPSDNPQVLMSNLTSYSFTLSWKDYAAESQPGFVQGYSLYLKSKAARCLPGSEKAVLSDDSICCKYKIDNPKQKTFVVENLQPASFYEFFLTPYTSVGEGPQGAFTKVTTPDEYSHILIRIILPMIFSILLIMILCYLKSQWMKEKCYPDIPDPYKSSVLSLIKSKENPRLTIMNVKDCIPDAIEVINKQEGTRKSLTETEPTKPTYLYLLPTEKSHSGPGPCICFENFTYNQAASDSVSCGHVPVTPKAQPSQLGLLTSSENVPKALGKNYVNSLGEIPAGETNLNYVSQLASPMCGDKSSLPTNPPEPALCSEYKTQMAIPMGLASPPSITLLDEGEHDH

T2: canine OSMR on canine cells (canine, UniProt A0A8I3MI11 28-967)
T2 sequence: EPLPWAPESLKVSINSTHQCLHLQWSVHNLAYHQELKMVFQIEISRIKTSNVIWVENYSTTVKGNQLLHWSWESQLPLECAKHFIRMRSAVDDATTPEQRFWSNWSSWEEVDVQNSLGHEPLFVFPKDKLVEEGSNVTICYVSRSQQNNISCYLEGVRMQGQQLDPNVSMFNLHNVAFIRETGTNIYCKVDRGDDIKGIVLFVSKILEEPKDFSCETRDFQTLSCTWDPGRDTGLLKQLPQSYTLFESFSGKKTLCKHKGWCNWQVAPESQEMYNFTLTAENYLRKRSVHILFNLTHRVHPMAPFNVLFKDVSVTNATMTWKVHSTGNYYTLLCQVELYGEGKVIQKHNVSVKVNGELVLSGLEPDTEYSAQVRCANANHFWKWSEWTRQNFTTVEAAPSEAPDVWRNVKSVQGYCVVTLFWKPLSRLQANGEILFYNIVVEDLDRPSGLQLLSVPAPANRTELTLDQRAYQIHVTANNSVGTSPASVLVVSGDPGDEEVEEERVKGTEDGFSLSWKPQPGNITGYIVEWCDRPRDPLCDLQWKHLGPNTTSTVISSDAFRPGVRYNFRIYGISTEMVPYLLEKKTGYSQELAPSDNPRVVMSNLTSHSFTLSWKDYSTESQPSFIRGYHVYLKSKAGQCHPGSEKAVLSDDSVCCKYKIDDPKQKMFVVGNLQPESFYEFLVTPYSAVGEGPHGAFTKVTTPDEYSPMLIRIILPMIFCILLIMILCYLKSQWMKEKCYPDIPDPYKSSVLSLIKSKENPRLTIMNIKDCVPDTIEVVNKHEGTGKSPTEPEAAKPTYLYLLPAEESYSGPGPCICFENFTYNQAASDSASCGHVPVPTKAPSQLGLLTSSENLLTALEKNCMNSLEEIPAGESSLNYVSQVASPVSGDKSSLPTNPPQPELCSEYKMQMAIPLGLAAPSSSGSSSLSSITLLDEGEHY

T3: Human_OSMR (human, UniProt Q99650 28-739)
T3 construct: Bought protein; also called hOSMR
T3 sequence: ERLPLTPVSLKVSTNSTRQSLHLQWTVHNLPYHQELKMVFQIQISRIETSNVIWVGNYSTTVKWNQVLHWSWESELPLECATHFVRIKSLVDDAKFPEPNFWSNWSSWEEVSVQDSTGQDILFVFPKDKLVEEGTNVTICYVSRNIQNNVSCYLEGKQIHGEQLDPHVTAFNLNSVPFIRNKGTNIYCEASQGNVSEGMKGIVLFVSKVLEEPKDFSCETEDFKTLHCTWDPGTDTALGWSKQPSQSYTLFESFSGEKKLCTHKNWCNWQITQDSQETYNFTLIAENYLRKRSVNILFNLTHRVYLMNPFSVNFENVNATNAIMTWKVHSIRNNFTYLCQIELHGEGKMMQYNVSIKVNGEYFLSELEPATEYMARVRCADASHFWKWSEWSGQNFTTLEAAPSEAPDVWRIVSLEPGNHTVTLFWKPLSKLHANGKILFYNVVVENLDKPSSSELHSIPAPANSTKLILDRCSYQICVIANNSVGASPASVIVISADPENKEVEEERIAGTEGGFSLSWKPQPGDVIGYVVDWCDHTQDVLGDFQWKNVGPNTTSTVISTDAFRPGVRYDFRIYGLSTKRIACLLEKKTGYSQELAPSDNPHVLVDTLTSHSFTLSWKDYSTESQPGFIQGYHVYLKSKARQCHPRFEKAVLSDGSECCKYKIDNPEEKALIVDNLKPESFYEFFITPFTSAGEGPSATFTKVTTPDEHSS


Legend:
[1] = molecular target: T1, feline OSMR on feline Fcwf-4 cells; assay: cell-based or functional assay
[2] = molecular target: T2, canine OSMR on canine cells; assay: cell-based or functional assay
Human_OSMR [3] = molecular target: T3, Human_OSMR; assay: SPR Biacore, OSMR on chip
[4] = molecular target: T1, feline OSMR on feline Fcwf-4 cells; assay: cell-based or functional assay; remark: listed apart in the source
[5] = molecular target: T2, canine OSMR on canine cells; assay: cell-based or functional assay; remark: listed apart in the source
[6] = molecular target: T4, ANTIBODY EXPRESSION CONTROL; assay: SPR Biacore, expression control
T4 construct: also called mouse anti-canine antibody (capture reagent of the expression control ELISA)
Procedure, shortened: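 Surface plasmon resonance with OSMR amine-coupled at 5 μg/mL via NHS/EDC, ethanolamine-quenched, and candidate mAbs flowed over as analyte. ka, kd and KD derived from 1:1 model fits.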

Human_OSMR [7] = molecular target: T3, Human_OSMR; assay: SPR Biacore, OSMR on chip; remark: listed apart in the source
Procedure: The affinity with which candidate mAbs bind canine, feline, and human (SEQ ID NO: 122; Human_OSMR) (R&D Systems, Minneapolis, Minn.) OSMR was determined using surface plasmon resonance (SPR) on a Biacore system (Biacore Life Sciences (GE Healthcare), Uppsala, Sweden). To avoid affinity differences associated with differential surface preparation that can occur when immobilizing antibodies to surfaces; OSMR from each species was directly conjugated to individual surfaces. Immobilization was obtained by amine coupling 5 μg/mL OSMR using N-hydroxysuccinimide (NHS)/1-Ethyl-3-(3-dimethylaminopropyl) carbodiimide (EDC) chemistry. Chips were quenched with ethanolamine and the affinity with which all candidate mAbs bound to the immobilized OSMR was evaluated. All curves were fit to a 1:1 model. […] Results for affinity measurements are described herein.

| Binder | % inh of feline IL-31 pSTAT3 signaling, feline Fcwf-4 cells [1] [% inh] | % inh of canine IL-31 pSTAT3 signaling, canine DH82 cells [2] [% inh] | binding result (Human_OSMR [3]) | % inh of feline IL-31 pSTAT3 signaling, feline Fcwf-4 cells [4] [% inh @ 75 µg/ml] | % inh of canine IL-31 pSTAT3 signaling, canine DH82 cells [5] [% inh @ 75 µg/ml] | IC50, inhibition of canine OSM pSTAT3 signaling, canine DH82 cells [2] [µg/ml] | IC50, inhibition of canine OSM pSTAT3 signaling, feline Fcwf-4 cells [4] [µg/ml] | IC50, inhibition of canine OSM pSTAT3 signaling, canine DH82 cells [5] [µg/ml] | IC50, inhibition of feline IL-31 pSTAT3 signaling, feline Fcwf-4 cells [4] [µg/ml] | IC50, inhibition of canine IL-31 pSTAT3 signaling, canine DH82 cells [5] [µg/ml] | Kd [6] [pM] | koff [6] [s⁻¹] | kon [6] [M⁻¹ s⁻¹] | binding result (Human_OSMR [7]) |
| --- | --- | --- | --- | --- | --- | --- | --- | --- | --- | --- | --- | --- | --- | --- |
| Mu_09E09 (antibody, V domains shown, Mouse hybridoma IgG) VH: DVKLVESGEGLVKPGGSLKLSCAASGFTFSSYAMSWVRQTPEKRLEWVAYISSGGDYIYYADTVKGRFTISRDNARNTLYLQMSSLKSEDTAMYYCTRDPITGTFAYWGQGTLVTVSA VL: DLQMTQTTSSLSASLGDRVTISCRASQDINNYLNWYQQKPDGTVKLLIYYTSTLHSGVPSRFSGSGSGTDYSLTISNLEQEDIATYFCQQGNTLPWTFGGGTKLEIK | 63 | 80 | no binding | 63 | 80 |  |  |  |  |  |  |  |  |  |
| Mu_10F07 (antibody, V domains shown, Mouse hybridoma IgG) VH: DVKLVESGEGLVKPGGSLKLSCAASGFTFSSYAMSWVRQTPEKRLEWVTYISSGGDYFYYADTVKGRFTISRDNARNTLYLQMSSLKSEDTAMYYCTRDPITGTFAYWGQGTLVTVSA VL: DIQMTQTTSSLSASLGDRVTISCRASQDITNYLNWYQQKPDGTVKLLIYYTSTLHSGVPSRFSGSGSGTDFSLTISNLEQEDIATYFCQQGHMLPWTFGGGTKLEIK | 91 | 93 | no binding | 91 | 93 | 0.04 | 0.23 | 0.05 |  |  |  |  |  |  |
| Mu_19F07 (antibody, V domains shown, Mouse hybridoma IgG) VH: EVKLVESEGGLVQPGSSMKLSCTASGFTFSDYYMAWVRQVPEKGLEWVANINYDGSSTYYLDSLKSRFIISRDNAKNILYLQMSSLKSEDTATYYCARGLTWDFDVWGTGTTVTVSS VL: DIVMTQSHKFMSPSVGDRVSITCKASQDVDTAVAWYQQKPGQSPKLLIYLASTRHTGVPDRFTGSGSGTDFTLTISNVQSEDLADYFCQQYSRFPLTFGAGTKLELK | 90 | 87 | no binding |  |  | 0.27 | 0.68 | 0.27 | 0.42 | 0.07 |  |  |  |  |
| mouse: canine 19F07 chimera (antibody, V domains shown, Mouse variable domains on canine IgG constant regions; also called 19F07 (Mouse:Canine); mouse:dog chimera 19F07) VH: EVKLVESEGGLVQPGSSMKLSCTASGFTFSDYYMAWVRQVPEKGLEWVANINYDGSSTYYLDSLKSRFIISRDNAKNILYLQMSSLKSEDTATYYCARGLTWDFDVWGTGTTVTVSS VL: DIVMTQSHKFMSPSVGDRVSITCKASQDVDTAVAWYQQKPGQSPKLLIYLASTRHTGVPDRFTGSGSGTDFTLTISNVQSEDLADYFCQQYSRFPLTFGAGTKLELKR |  |  |  |  |  |  |  | 0.26 |  | 0.28 | 82 | 2.29e-05 | 281000 | no binding |
| Mu_02D09 (antibody, V domains shown, Mouse hybridoma IgG; also called mouse anti-OSMR 02D09) VH: EVQLVESGGGLVKPGGSLTLSCAASGFTFSDYGMHWLRQAPEKGLEWVAYISSGSRAVFFADTVKGRFTISRDNAKNTLFLQMTSLRSDDTAMYYCARDRYDGRGFAYWGQGTLVTVSA VL: DIVLTQSPATLSVTPGDSVSLSCRASQSISNNLHWYQQTSHESPRLLITYASQSISGIPSRFSGSGSGTDFTLSINSVETEDFGMYFCQQSNSWPLTFGAGTKLELK | 67 | 0 | no binding | 67 | 0 | > 50 |  | > 50 |  |  |  |  |  |  |
| Mu_14C04 (antibody, V domains shown, Mouse hybridoma IgG) VH: EVQLQESGAELVKPGASVKISCKASGYAFSNYWMNWMKQRPGKGLEWIGQIYPGHVNTNYNGNFKDKATLTADKSSSTAYMQLSSLTSEDSAVYFCARSADNSGFVLFAYWGQGTLVTVS VL: DIVLTQSPASLAVSLGQRATISCRASKSVSTSGYSYLHWYQQKPGQPPKLLIFLASNLESGVPARFSGSGSGTDFTLNIHPVEEEDAATYYCQHSRELPLTFGAGTKLELK | 0 | 72 | no binding | 0 |  | 0.73 |  | 8.64 |  | 5.65 |  |  |  |  |
